Experimental data from PMC2764445.
Like-named read-outs stand apart in the source and are kept apart here.

What was measured:
[1] = target: T1, Hfq (His-tagged; natural Hfq used in some experiments) (UniProt P0A6X3 1-102); assay: EMSA
[2] = target: T1, Hfq (His-tagged; natural Hfq used in …); assay: fluorescence anisotropy
[3] = target: T1, Hfq (His-tagged; natural Hfq used in …); assay: EMSA; remark: listed apart in the source

T1 sequence (P0A6X3 whole entry): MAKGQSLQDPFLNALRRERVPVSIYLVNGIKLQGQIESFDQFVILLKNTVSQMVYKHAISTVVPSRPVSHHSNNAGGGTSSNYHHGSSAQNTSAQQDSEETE

Row | Binder | binding result [3] | other results
1 | GCACUUAAAAAAUUCG (ssRNA) [R16] | – | binding result [1]: binds
2 | CGAAUUUUUUAAGUGC (ssRNA) [D16-FAM] | – | Kd [2]: 23 ± 4 nM
3 | CCAGGGCACTTAAAAAATTCGCCTGG (ssDNA) [dMB-D16] | no binding | –
4 | CCCCTCGAATTTTTTAAGTGCAGGGG (ssDNA) [dMB-R16] | no binding | –
